Patent US20260056186A1 (JIANGSU HENGRUI PHARMACEUTICALS, published 2026)
Like-named read-outs stand apart in the source and are kept apart here.

What was measured:
[1] = target: T1, BAFF (Sino biological, 10056-HNCH) (UniProt Q9Y275 134-285, biotinylated in the blocking ELISA (site not stated)); assay: ELISA, BAFF coated at 1 ug/mL, anti-human IgG-HRP
T1 construct: also called BLyS
Procedure: (§1) In addition, the BAFF binding activity of the constructed TACI-Fc fusion proteins was assessed, and the TACI-Fc fusion proteins' functional activity of blocking the binding of BAFF to BAFF-R was assessed (see Example 1 for the experimental method).
(§2) The BAFF binding activity of the TACI-Fc fusion proteins was assessed as follows: BAFF (Sino biological, 10056-HNCH) protein was diluted with a pH 7.4 PBS (BasalMedia, B320) buffer to 1 μg/mL, and the resulting dilution was added to a 96-well microplate (Corning, 3590) at 100 μL/well. The plate was incubated overnight at 4° C. After the liquid was discarded, 5% skim milk (BD, 232100), diluted with PBS, was added at 300 μL/well for blocking, and the plate was incubated at 37° C. for 2 h. After the blocking, the blocking solution was discarded, and the plate was washed 3 times with a PBST buffer (pH 7.4 PBS containing 0.10% tween-20). Serially diluted test antibody or fusion protein solutions were added at 100 μL/well, and the plate was incubated at 37° C. for 1 h. […] The plate was incubated at 37° C. for 1 h. After the plate was washed 3 times with PBST, the chromogenic substrate TMB (KPL, 5120-0077) was added at 100 μL/well. The plate was incubated at room temperature for 10-15 min, and 1 M H₂SO₄ was added at 50 μL/well to stop the reaction. The absorbance at 450 nm was measured using a microplate reader. Curves for the binding of the antibodies to the antigen were fitted using software, and EC₅₀ values were calculated.

[2] = target: T1, BAFF (Sino biological, 10056-HNCH); assay: ELISA, BAFF coated at 1 ug/mL, anti-human IgG-HRP; remark: listed apart in the source
Procedure: as §2
The BAFF binding activity of the constructed TACI-Fc fusion proteins was assessed (see Example 2 for the experimental method), and the results are shown in Table 3: […]

[3] = target: T1, BAFF (Sino biological, 10056-HNCH); assay: competition ELISA: fusion protein pre-mixed with biotinylated BAFF, added to coated BAFF-R
Procedure: The above TACI-Fc fusion proteins' function of blocking the binding of BAFF to BAFF-R was further assessed as follows: The receptor protein was diluted with a pH 7.4 PBS (BasalMedia, B320) buffer to 2 μg/mL, and the resulting dilution was added to a 96-well microplate (Corning, 3590) at 100 μL/well. The plate was incubated overnight at 4° C. After the liquid was discarded, 1% Casein blocking solution (Thermo, 37528) was added at 200 μL/well for blocking, and the plate was incubated at 37° C. for 2 h. After the blocking, the blocking solution was discarded, and the plate was washed 3 times with a PBST buffer (pH 7.4 PBS containing 0.1% tween-20) and set aside for later use. A biotinylated ligand protein at a fixed concentration was mixed with a serially diluted antibody or fusion protein, and the mixture was pre-incubated at 37° C. for 30 min and then added to the blocked microplate. The plate was incubated at 37° C. for 1.5 h. After the incubation, the plate was washed 3 times with PBST, and streptavidin-HRP (Invitrogen, 434323, diluted in a 1:4000 ratio) was added at 100 μL/well. The plate was incubated at 37° C. for 1 h. The supernatant was removed. […] The absorbance at 450 nm was measured using a microplate reader. Curves for the inhibition of the binding of the ligand to the receptor were fitted using software, and IC₅₀ values were calculated. […]

[4] = target: T1, BAFF (Sino biological, 10056-HNCH); assay: as above; remark: listed apart in the source
Procedure: The above TACI-Fc fusion proteins' function of blocking the binding of BAFF to BAFF-R was further assessed as follows: The receptor protein was diluted with a pH 7.4 PBS (BasalMedia, B320) buffer to 2 μg/mL, and the resulting dilution was added to a 96-well microplate (Corning, 3590) at 100 μL/well. The plate was incubated overnight at 4° C. After the liquid was discarded, 1% Casein blocking solution (Thermo, 37528) was added at 200 μL/well for blocking, and the plate was incubated at 37° C. for 2 h. After the blocking, the blocking solution was discarded, and the plate was washed 3 times with a PBST buffer (pH 7.4 PBS containing 0.1% tween-20) and set aside for later use. A biotinylated ligand protein at a fixed concentration was mixed with a serially diluted antibody or fusion protein, and the mixture was pre-incubated at 37° C. for 30 min and then added to the blocked microplate. The plate was incubated at 37° C. for 1.5 h. After the incubation, the plate was washed 3 times with PBST, and streptavidin-HRP (Invitrogen, 434323, diluted in a 1:4000 ratio) was added at 100 μL/well. The plate was incubated at 37° C. for 1 h. The supernatant was removed. After the plate was washed 3 times with PBST, the chromogenic substrate TMB (KPL, 5120-0077) was added at 100 μL/well. The plate was incubated at room temperature for 10-15 min, and 1 M H₂SO₄ was added at 50 μL/well to stop the reaction. The absorbance at 450 nm was measured using a microplate reader. Curves for the inhibition of the binding of the ligand to the receptor were fitted using software, and IC₅₀ values were calculated. The sources of the ligand and the receptor protein used are as follows: BAFF (Sino biological, 10056-HNCH) and BAFF-R (Sino biological, 16079-H02H).
as §1

EC50 [1]: 0.49 nM | EC50 [2]: 0.418 nM | IC50 [3]: 5.02 nM | IC50 [4]: 2.09 nM
B1: TACI-9-Fc (Fc fusion)
chain: SLSCRKEQGKFYDHLLRDCISCASICGQHPKQCAYFCENKLDKTHTCPPCPAPEAEGAPSVFLFPPKPKDTLMISRTPEVTCVVVDVSHEDPEVKFNWYVDGVEVHNAKTKPREEQYNSTYRVVSVLTVLHQDWLNGKEYKCKVSNKALPSSIEKTISKAKGQPREPQVYTLPPSRDELTKNQVSLTCLVKGFYPSDIAVEWESNGQPENNYKTTPPVLDSDGSFFLYSKLTVDKSRWQQGNVFSCSVMHEALHNHYTQKSLSLSPGK
notes: C-terminus of TACI-9 fused directly to the N-terminus of human IgG1 Fc; two identical polypeptide chains; expressed in 293E
